Assay [1] has as its target T1, human CD3 on cells (primary human T cells; Jurkat 522-F/Y cells) (human, UniProt P07766 23-207).
T1 construct: whole, on cells; The other chains of the CD3 complex were also present on the cells; also called CD3ε; human CD3+ T cells
Put plainly: flow cytometry on primary human T cells (Env- CD3+), DART at 4 µg/mL, biotinylated anti-EK antibody and streptavidin-PE [panel D. Human T Cells].

In assay [2] the target is T2, M.ConS gp140 CFI (HIV-1 group M consensus Env protein).
T2 construct: also called M.ConS gp140ΔCFI
Put plainly: SPR (BIAcore 3000), Env protein over DART captured on immobilized CD3.

In assay [3] the target is T2, M.ConS gp140 CFI (HIV-1 group M …). Put plainly: SPR (BIAcore 3000), M.ConS gp140 over DART captured on immobilized CD3ε/δ, 1:1 Langmuir global fit.
For assay [4], the target named is T3, HIV-1 Env, HXBc2, subtype B, expressed on Jurkat 522-F/Y cells (HIV-1 (HXBc2, subtype B), UniProt P04578 33-856). Put plainly: cell-based or functional assay.
The target in assay [5] is T3, HIV-1 Env, HXBc2, subtype B, expressed …. Briefly: flow cytometry on Jurkat-522 F/Y cells (Env+ CD3+), biotinylated anti-EK antibody and streptavidin-PE [panel F. Jurkat-522 F/Y Cells].
The target in assay [6] is T1, human CD3 on cells (primary human T …). Put plainly: flow cytometry on primary human T cells (Env- CD3+), biotinylated anti-EK antibody and streptavidin-PE [panel D. Human T Cells]. (In general: Flow cytometry measures light scatter and fluorescence of single cells or particles in a stream.)
The target in assay [7] is JR-FL gp140 CF (HIV-1 Env protein) (HIV-1 (JR-FL)). Briefly: SPR (BIAcore 3000), Env protein over DART captured on immobilized CD3. (In general: In SPR one partner is held on a chip, and binding of the other changes the refractive index at the surface.)
Assay [8] shares this target. Put plainly: SPR (BIAcore 3000), JR-FL gp140 over DART captured on immobilized CD3ε/δ, 1:1 Langmuir global fit.

T1 sequence (P07766 23-207): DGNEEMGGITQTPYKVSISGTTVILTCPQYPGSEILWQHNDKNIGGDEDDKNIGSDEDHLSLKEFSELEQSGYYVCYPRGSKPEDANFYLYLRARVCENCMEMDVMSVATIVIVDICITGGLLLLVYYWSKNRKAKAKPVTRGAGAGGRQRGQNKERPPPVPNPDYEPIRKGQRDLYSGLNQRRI

B1: HIV-1 × CD3 Bi-Specific Diabody (A32 × CD3) (bispecific antibody)
chain 1: QSALTQPPSASGSPGQSVTISCTGTSSDVGGYNYVSWYQHHPGKAPKLIISEVNNRPSGVPDRFSGSKSGNTASLTVSGLQAEDEAEYYCSSYTDIHNFVFGGGTKLTVLGGGSGGGGEVQLVESGGGLVQPGGSLRLSCAASGFTFSTYAMNWVRQAPGKGLEWVGRIRSKYNNYATYYADSVKGRFTISRDDSKNSLYLQMNSLKTEDTAVYYCVRHGNFGNSYVSWFAYWGQGTLVTVSSGGCGGGEVAALEKEVAALEKEVAALEKEVAALEK
chain 2: QAVVTQEPSLTVSPGGTVTLTCRSSTGAVTTSNYANWVQQKPGQAPRGLIGGTNKRAPWTPARFSGSLLGGKAALTITGAQAEDEADYYCALWYSNLWVFGGGTKLTVLGGGGSGGGGQVQLQESGPGLVKPSQTLSLSCTVSGGSSSSGAHYWSWIRQYPGKGLEWIGYIHYSGNTYYNPSLKSRITISQHTSENQFSLKLNSVTVADTAVYYCARGTRLRTLRNAFDIWGQGTLVTVSSGGCGGGKVAALKEKVAALKEKVAALKEKVAALKE
notes: Two-chain DART without Fc, with an interchain disulfide and E-coil/K-coil domains; also called A32×CD3 DART
Turning to B1, in assay [1], the binding result was “binds”. Further, the dissociation constant (Kd) (usually a measure of binding affinity in units of concentration) in assay [2] was 47.7 nM. Also, in assay [3], the koff (usually the rate constant with which the complex falls apart) was determined as 0.00081 s⁻¹ and the kon (usually the rate constant with which the complex forms) is 17000 M⁻¹ s⁻¹. Besides, in assay [4], the “EC50 of redirected T-cell killing of Env+ Jurkat 522-F/Y GF cells, E:T 10:1, 48 hours, LUM assay” value amounted to 0.172 ng/mL and the “EC50 of redirected T-cell killing of Env+ Jurkat 522-F/Y cells, E:T 10:1, 48 hours, LDH release assay” value is 0.23 ng/mL.

B2: HIV-1 × Fluorescein Bi-Specific Diabody (7B2 × 4420) (bispecific antibody)
chain 1: DIVMTQSPDSLAVSPGERATIHCKSSQTLLYSSNNRHSIAWYQQRPGQPPKLLLYWASMRLSGVPDRFSGSGSGTDFTLTINNLQAEDVAIYYCHQYSSHPPTFGHGTRVEIKGGGSGGGGEVKLDETGGGLVQPGRPMKLSCVASGFTFSDYWMNWVRQSPEKGLEWVAQIRNKPYNYETYYSDSVKGRFTISRDDSKSSVYLQMNNLRVEDMGIYYCTGSYYGMDYWGQGTSVTVSSGGCGGGEVAALEKEVAALEKEVAALEKEVAALEK
chain 2: DVVMTQTPFSLPVSLGDQASISCRSSQSLVHSNGNTYLRWYLQKPGQSPKVLIYKVSNRFSGVPDRFSGSGSGTDFTLKISRVEAEDLGVYFCSQSTHVPWTFGGGTKLEIKGGGSGGGGQVQLVQSGGGVFKPGGSLRLSCEASGFTFTEYYMTWVRQAPGKGLEWLAYISKNGEYSKYSPSSNGRFTISRDNAKNSVFLQLDRLSADDTAVYYCARADGLTYFSELLQYIFDLWGQGARVTVSSGGCGGGKVAALKEKVAALKEKVAALKEKVAALKE
B2: the binding result in assay [5] and in assay [6] was “no binding (tested: 4 µg/mL (single concentration))” throughout.

B3: HIV-1 × Fluorescein Bi-Specific Diabody (A32 × 4420) (bispecific antibody)
chain 1: QSALTQPPSASGSPGQSVTISCTGTSSDVGGYNYVSWYQHHPGKAPKLIISEVNNRPSGVPDRFSGSKSGNTASLTVSGLQAEDEAEYYCSSYTDIHNFVFGGGTKLTVLGGGSGGGGEVKLDETGGGLVQPGRPMKLSCVASGFTFSDYWMNWVRQSPEKGLEWVAQIRNKPYNYETYYSDSVKGRFTISRDDSKSSVYLQMNNLRVEDMGIYYCTGSYYGMDYWGQGTSVTVSSGGCGGGEVAALEKEVAALEKEVAALEKEVAALEK
chain 2: DVVMTQTPFSLPVSLGDQASISCRSSQSLVHSNGNTYLRWYLQKPGQSPKVLIYKVSNRFSGVPDRFSGSGSGTDFTLKISRVEAEDLGVYFCSQSTHVPWTFGGGTKLEIKGGGSGGGGQVQLQESGPGLVKPSQTLSLSCTVSGGSSSSGAHYWSWIRQYPGKGLEWIGYIHYSGNTYYNPSLKSRITISQHTSENQFSLKLNSVTVADTAVYYCARGTRLRTLRNAFDIWGQGTLVTVSSGGCGGGKVAALKEKVAALKEKVAALKEKVAALKE
Consider B3, for which the binding result in assay [6] was “no binding (tested: 4 µg/mL (single concentration))”.

B4: HIV-1 × CD3 Bi-Specific Diabody (7B2 × CD3) (bispecific antibody)
chain 1: DIVMTQSPDSLAVSPGERATIHCKSSQTLLYSSNNRHSIAWYQQRPGQPPKLLLYWASMRLSGVPDRFSGSGSGTDFTLTINNLQAEDVAIYYCHQYSSHPPTFGHGTRVEIKGGGSGGGGEVQLVESGGGLVQPGGSLRLSCAASGFTFSTYAMNWVRQAPGKGLEWVGRIRSKYNNYATYYADSVKGRFTISRDDSKNSLYLQMNSLKTEDTAVYYCVRHGNFGNSYVSWFAYWGQGTLVTVSSGGCGGGEVAALEKEVAALEKEVAALEKEVAALEK
chain 2: QAVVTQEPSLTVSPGGTVTLTCRSSTGAVTTSNYANWVQQKPGQAPRGLIGGTNKRAPWTPARFSGSLLGGKAALTITGAQAEDEADYYCALWYSNLWVFGGGTKLTVLGGGGSGGGGQVQLVQSGGGVFKPGGSLRLSCEASGFTFTEYYMTWVRQAPGKGLEWLAYISKNGEYSKYSPSSNGRFTISRDNAKNSVFLQLDRLSADDTAVYYCARADGLTYFSELLQYIFDLWGQGARVTVSSGGCGGGKVAALKEKVAALKEKVAALKEKVAALKE
notes: Two-chain DART without Fc; also called 7B2×CD3 DART
Take B4: the binding result in assay [1] is “binds”. The Kd in assay [7] turned out to be 15.1 nM. For the same molecule, in assay [8], the koff stood at 0.00031 s⁻¹ and the kon was determined as 20000 M⁻¹ s⁻¹. Besides, in assay [4], the “EC50 of redirected T-cell killing of Env+ Jurkat 522-F/Y GF cells, E:T 10:1, 48 hours, LUM assay” value was found to be 0.147 ng/mL and the “EC50 of redirected T-cell killing of Env+ Jurkat 522-F/Y cells, E:T 10:1, 48 hours, LDH release assay” value turned out to be 0.16 ng/mL.

These data come from patent US20180148497A1 (DUKE UNIVERSITY, published 2018).
